Experimental data as given in PMC9455977, “Deciphering the Regulatory Circuits of RA3 Replication Module - Mechanisms of the Copy Number Control”.

Test system: RepA D76V (plasmid RA3 (IncU, isolated from Aeromonas hydrophila))
Assay: EMSA
Settings: 25 mM Tris-HCl pH 8.0, 5 mM MgCl2, 40 mM NaCl, 0.5 mg/mL BSA, 30 min at 37 C, 20 uL; 30 ng PCR fragment (0.8% agarose) or 150 ng ds oligo (10% native PAGE) …

repAp 256 bp PCR fragment
binding signal (fold lower affinity than WT RepA): 5
